{"source": "the supplement of paper PMC10567573", "experiment": "protein stability index of a GFP-peptide fusion (GPS, HEK-293T) (PSI 1-6); higher = more stable", "details": "c terminus: a fixed tail appended", "note": "± gives the standard deviation.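 Note: 24-mer peptide tiles fused after GFP, lentivirally expressed, FACS-sorted into six equal bins by GFP/DsRed ratio, decoded by Illumina sequencing, PSI is the read-weighted mean bin number.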", "data": [{"sequence": "GAAESPYAYSNGIDYKTTTILLDG [RAB40C]", "values": [{"measurement": "protein stability index", "setting": "treatment: DMSO", "value": "3.7 ± 0.39"}, {"measurement": "protein stability index", "setting": "treatment: MLN4924 1 uM, 8 h", "value": "3.67 ± 0.39"}]}, {"sequence": "ALALANSDSVHIEDAEAVEQLREA [ESRRA]", "values": [{"measurement": "protein stability index", "setting": "treatment: DMSO", "value": "5.18 ± 0.3"}, {"measurement": "protein stability index", "setting": "treatment: MLN4924 1 uM, 8 h", "value": "5.26 ± 0.28"}]}, {"sequence": "QLSHIKAKIRAKIPGTGALASAAA [RTN2]", "values": [{"measurement": "protein stability index", "setting": "treatment: DMSO", "value": "3.07 ± 0.21"}, {"measurement": "protein stability index", "setting": "treatment: MLN4924 1 uM, 8 h", "value": "3.09 ± 0.41"}]}, {"sequence": "RLLALIYLAHASDVLENAFAPLLD [GOLPH3]", "values": [{"measurement": "protein stability index", "setting": "treatment: DMSO", "value": "2.65 ± 0.48"}, {"measurement": "protein stability index", "setting": "treatment: MLN4924 1 uM, 8 h", "value": "2.7 ± 0.71"}]}, {"sequence": "KEEQRDYVFYLAVGNYRLKEYEKA [FIS1]", "values": [{"measurement": "protein stability index", "setting": "treatment: DMSO", "value": "2.39 ± 0.43"}, {"measurement": "protein stability index", "setting": "treatment: MLN4924 1 uM, 8 h", "value": "2.23 ± 0.36"}]}, {"sequence": "DVTLEASRESSKPRAVLKPRRVCV [PPP2R2C]", "values": [{"measurement": "protein stability index", "setting": "treatment: DMSO", "value": "3.68 ± 0.1"}, {"measurement": "protein stability index", "setting": "treatment: MLN4924 1 uM, 8 h", "value": "3.78 ± 0.21"}]}, {"sequence": "LDSNGAGEKSENNSSNSDIVHVEK [BCL2L13]", "values": [{"measurement": "protein stability index", "setting": "treatment: DMSO", "value": "5.57 ± 0.22"}, {"measurement": "protein stability index", "setting": "treatment: MLN4924 1 uM, 8 h", "value": "5.6 ± 0.13"}]}, {"sequence": "DQEEIKTLERYMCSRFFIDFPDIL [TENT5C]", "values": [{"measurement": "protein stability index", "setting": "treatment: DMSO", "value": "2.45 ± 0.16"}, {"measurement": "protein stability index", "setting": "treatment: MLN4924 1 uM, 8 h", "value": "2.56 ± 0.33"}]}, {"sequence": "KLLLFLSTELQASQILQNKKHKNS [FAM98B]", "values": [{"measurement": "protein stability index", "setting": "treatment: DMSO", "value": "2.98 ± 0.75"}, {"measurement": "protein stability index", "setting": "treatment: MLN4924 1 uM, 8 h", "value": "2.5 ± 1.1"}]}, {"sequence": "VGLRNTLTRIRKWIEHSKLREINF [GLT8D2]", "values": [{"measurement": "protein stability index", "setting": "treatment: DMSO", "value": "2.41 ± 0.3"}, {"measurement": "protein stability index", "setting": "treatment: MLN4924 1 uM, 8 h", "value": "1.9 ± 0.31"}]}, {"sequence": "MWDTKTLGLRQHHCRKCGQAVCGK [WDFY1]", "values": [{"measurement": "protein stability index", "setting": "treatment: DMSO", "value": "3.21 ± 0.25"}, {"measurement": "protein stability index", "setting": "treatment: MLN4924 1 uM, 8 h", "value": "3.4 ± 0.27"}]}, {"sequence": "GEAAAGGAAEEARRLEQRWGFGLE [ACBD3]", "values": [{"measurement": "protein stability index", "setting": "treatment: DMSO", "value": "4.49 ± 0.38"}, {"measurement": "protein stability index", "setting": "treatment: MLN4924 1 uM, 8 h", "value": "4.43 ± 0.38"}]}, {"sequence": "YMVIEEGGMNHSAFPQTPFKTGNS [KCNA3]", "values": [{"measurement": "protein stability index", "setting": "treatment: DMSO", "value": "3.27 ± 0.17"}, {"measurement": "protein stability index", "setting": "treatment: MLN4924 1 uM, 8 h", "value": "3.22 ± 0.61"}]}, {"sequence": "KASGRFGLLQGTSAETSGGLLICL [SEPHS2]", "values": [{"measurement": "protein stability index", "setting": "treatment: DMSO", "value": "2.53 ± 0.83"}, {"measurement": "protein stability index", "setting": "treatment: MLN4924 1 uM, 8 h", "value": "2.41 ± 0.69"}]}, {"sequence": "SLAIFSEELDGLCFKGELPLRAVH [PLEKHN1]", "values": [{"measurement": "protein stability index", "setting": "treatment: DMSO", "value": "2.42 ± 0.13"}, {"measurement": "protein stability index", "setting": "treatment: MLN4924 1 uM, 8 h", "value": "2.46 ± 0.43"}]}, {"sequence": "FIGEESVAAGEKSILTDNPTWIID [IMPA1]", "values": [{"measurement": "protein stability index", "setting": "treatment: DMSO", "value": "2.82 ± 0.46"}, {"measurement": "protein stability index", "setting": "treatment: MLN4924 1 uM, 8 h", "value": "3.38 ± 0.28"}]}, {"sequence": "PSTLLPTPEEQGELEPLKGNFDWE [FOXJ1]", "values": [{"measurement": "protein stability index", "setting": "treatment: DMSO", "value": "5.17 ± 0.068"}, {"measurement": "protein stability index", "setting": "treatment: MLN4924 1 uM, 8 h", "value": "5.16 ± 0.29"}]}, {"sequence": "DSGQYWPSIYHTMASPCSAMAYHH [WDFY1]", "values": [{"measurement": "protein stability index", "setting": "treatment: DMSO", "value": "2.34 ± 0.2"}, {"measurement": "protein stability index", "setting": "treatment: MLN4924 1 uM, 8 h", "value": "2.38 ± 0.13"}]}, {"sequence": "TNGHGGEAAEGKSLGSALKPGEGR [TRIM29]", "values": [{"measurement": "protein stability index", "setting": "treatment: DMSO", "value": "5.08 ± 0.24"}, {"measurement": "protein stability index", "setting": "treatment: MLN4924 1 uM, 8 h", "value": "5.27 ± 0.33"}]}, {"sequence": "PVPTGFFNMWGFGRVSKQASQPVK [WDR41]", "values": [{"measurement": "protein stability index", "setting": "treatment: DMSO", "value": "2.84 ± 0.25"}, {"measurement": "protein stability index", "setting": "treatment: MLN4924 1 uM, 8 h", "value": "2.8 ± 0.21"}]}, {"sequence": "FYTLSPNSHFSLNVKTLKDGKPFP [PCDHGC5]", "values": [{"measurement": "protein stability index", "setting": "treatment: DMSO", "value": "2.6 ± 0.21"}, {"measurement": "protein stability index", "setting": "treatment: MLN4924 1 uM, 8 h", "value": "2.62 ± 0.24"}]}, {"sequence": "FMLGLGTLLPWNFFMTATQYFTNR [SLC29A1]", "values": [{"measurement": "protein stability index", "setting": "treatment: DMSO", "value": "2.87 ± 0.55"}, {"measurement": "protein stability index", "setting": "treatment: MLN4924 1 uM, 8 h", "value": "3.13 ± 0.26"}]}, {"sequence": "VHETPAASKTVFFFFSSPGNNNGT [BTBD1]", "values": [{"measurement": "protein stability index", "setting": "treatment: DMSO", "value": "2.37 ± 0.3"}, {"measurement": "protein stability index", "setting": "treatment: MLN4924 1 uM, 8 h", "value": "2.15 ± 0.31"}]}, {"sequence": "SVRISFAKGWGPCYSRQFITSCPC [SMAD6]", "values": [{"measurement": "protein stability index", "setting": "treatment: DMSO", "value": "2.79 ± 0.67"}, {"measurement": "protein stability index", "setting": "treatment: MLN4924 1 uM, 8 h", "value": "2.78 ± 0.85"}]}, {"sequence": "EDHNENGHTPLMEAGSAGHVEVAR [ANKRD17]", "values": [{"measurement": "protein stability index", "setting": "treatment: DMSO", "value": "5.63 ± 0.12"}, {"measurement": "protein stability index", "setting": "treatment: MLN4924 1 uM, 8 h", "value": "5.36 ± 0.12"}]}, {"sequence": "QCDKRFRWSSDLNKHLTTHQGIKP [ZNF75A]", "values": [{"measurement": "protein stability index", "setting": "treatment: DMSO", "value": "3.02 ± 0.12"}, {"measurement": "protein stability index", "setting": "treatment: MLN4924 1 uM, 8 h", "value": "2.97 ± 0.24"}]}, {"sequence": "NLRVLVDCILRDTSEDLRLQCDAV [TEKT4]", "values": [{"measurement": "protein stability index", "setting": "treatment: DMSO", "value": "2.64 ± 0.57"}, {"measurement": "protein stability index", "setting": "treatment: MLN4924 1 uM, 8 h", "value": "2.46 ± 0.29"}]}, {"sequence": "LPDCCHGSELRDFPGRPMGHLSKD [DLC1]", "values": [{"measurement": "protein stability index", "setting": "treatment: DMSO", "value": "4.44 ± 0.29"}, {"measurement": "protein stability index", "setting": "treatment: MLN4924 1 uM, 8 h", "value": "4.32 ± 0.27"}]}, {"sequence": "PRHQGHRVQPVKDTAHDFRAKCRN [TRIM35]", "values": [{"measurement": "protein stability index", "setting": "treatment: DMSO", "value": "4.57 ± 0.15"}, {"measurement": "protein stability index", "setting": "treatment: MLN4924 1 uM, 8 h", "value": "4.65 ± 0.24"}]}, {"sequence": "IKLFACYNDGVINLLEKFFEMKKG [SNAP91]", "values": [{"measurement": "protein stability index", "setting": "treatment: DMSO", "value": "2.39 ± 0.57"}, {"measurement": "protein stability index", "setting": "treatment: MLN4924 1 uM, 8 h", "value": "2.48 ± 0.37"}]}, {"sequence": "SKGQPRSQEESEEGEEDATSEVDK [CHGB]", "values": [{"measurement": "protein stability index", "setting": "treatment: DMSO", "value": "5.59 ± 0.21"}, {"measurement": "protein stability index", "setting": "treatment: MLN4924 1 uM, 8 h", "value": "5.4 ± 0.19"}]}, {"sequence": "PSIMPQKHWVYVKRGGNCPAPAPL [ZBTB22]", "values": [{"measurement": "protein stability index", "setting": "treatment: DMSO", "value": "2.85 ± 0.19"}, {"measurement": "protein stability index", "setting": "treatment: MLN4924 1 uM, 8 h", "value": "2.81 ± 0.32"}]}, {"sequence": "VSCPKSEVRAKFKFSLLNAKREET [SPOPL]", "values": [{"measurement": "protein stability index", "setting": "treatment: DMSO", "value": "3.67 ± 0.3"}, {"measurement": "protein stability index", "setting": "treatment: MLN4924 1 uM, 8 h", "value": "3.53 ± 0.19"}]}, {"sequence": "EAFCHANCSGPAPAAKPDPDGGRA [P3H4]", "values": [{"measurement": "protein stability index", "setting": "treatment: DMSO", "value": "4.82 ± 0.15"}, {"measurement": "protein stability index", "setting": "treatment: MLN4924 1 uM, 8 h", "value": "4.79 ± 0.19"}]}, {"sequence": "MAAQRNRSKESKDCSGLVLLCLFF [PCDHGA10]", "values": [{"measurement": "protein stability index", "setting": "treatment: DMSO", "value": "2.29 ± 0.27"}, {"measurement": "protein stability index", "setting": "treatment: MLN4924 1 uM, 8 h", "value": "1.83 ± 0.32"}]}, {"sequence": "ILLESHMVMIRGNSGLKPKDNEFT [POMT2]", "values": [{"measurement": "protein stability index", "setting": "treatment: DMSO", "value": "2.21 ± 0.31"}, {"measurement": "protein stability index", "setting": "treatment: MLN4924 1 uM, 8 h", "value": "2.15 ± 0.21"}]}]}
